Where two headings read alike, the source gives them in different places.
Experiments:
FtsA WT (1-405)-6xHis = target: T1, FtsA WT (1-405)-6xHis (E. coli, UniProt P0ABH0 1-405, Cy3 or Cy5 at the N-terminus in the labelled form (sortagging as for native FtsA)); assay: dual-colour TIRF microscopy on supported lipid bilayers; Cy5-labelled His-tagged FtsA (0.5-1 µM, washed) attached to bilayers with varied Tris-NTA lipid density; 1.25 µM Alexa488-FtsZ added; conditions: both partners purified
T1 construct: FtsA, E. coli, residues 1-405; plasmid pNB4; Attached to membranes through Tris-NTA lipids by its His tag; also called FtsA-His6; FtsA WT-His6; source: E. coli BL21, purified (as native FtsA); not shown: TwinStrep-SUMO, N-terminal, cleaved; 5xGlycine tag, N-terminal, kept; His6, C-terminal, kept
T1 sequence (looked up): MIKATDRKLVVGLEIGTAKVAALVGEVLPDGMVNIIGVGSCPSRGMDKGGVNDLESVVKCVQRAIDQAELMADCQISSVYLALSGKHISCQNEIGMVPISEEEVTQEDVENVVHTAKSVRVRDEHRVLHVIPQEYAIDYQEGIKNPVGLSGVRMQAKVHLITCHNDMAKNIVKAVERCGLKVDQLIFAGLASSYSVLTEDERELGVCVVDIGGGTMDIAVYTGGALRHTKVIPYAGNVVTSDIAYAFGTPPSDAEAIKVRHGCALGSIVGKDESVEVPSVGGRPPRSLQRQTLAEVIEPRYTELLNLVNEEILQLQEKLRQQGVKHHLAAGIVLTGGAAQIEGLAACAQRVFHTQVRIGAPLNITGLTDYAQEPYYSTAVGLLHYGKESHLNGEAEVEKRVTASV

FtsA R286W (1-405)-6xHis = target: T2, FtsA R286W (1-405)-6xHis (E. coli, UniProt P0ABH0 1-405, R286W, Cy3 or Cy5 at the N-terminus in the labelled form (sortagging as for native FtsA)); assay: as above; conditions: both partners purified
T2 construct: FtsA, E. coli, residues 1-405 with R286W; the C-terminal amphipathic helix replaced by a 6xHistidine tag; plasmid pNB5; Attached to membranes through Tris-NTA lipids by its His tag; also called FtsA R286W-His6; R286W-His6; source: E. coli BL21, purified (as native FtsA); not shown: TwinStrep-SUMO, N-terminal, cleaved; 5xGlycine tag, N-terminal, kept; His6, C-terminal, kept
T2 sequence (looked up): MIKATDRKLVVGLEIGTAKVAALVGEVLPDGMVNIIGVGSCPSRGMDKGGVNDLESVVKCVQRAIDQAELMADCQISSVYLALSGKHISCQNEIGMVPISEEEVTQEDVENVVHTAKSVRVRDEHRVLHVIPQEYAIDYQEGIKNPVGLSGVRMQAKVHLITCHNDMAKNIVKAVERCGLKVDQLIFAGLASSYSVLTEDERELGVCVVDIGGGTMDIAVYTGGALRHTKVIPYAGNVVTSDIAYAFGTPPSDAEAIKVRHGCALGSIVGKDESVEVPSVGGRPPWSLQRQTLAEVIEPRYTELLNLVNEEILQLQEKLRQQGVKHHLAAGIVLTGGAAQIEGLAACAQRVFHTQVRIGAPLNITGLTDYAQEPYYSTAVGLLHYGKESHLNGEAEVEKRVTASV

FtsA R286W = target: T3, FtsA R286W (E. coli, UniProt P0ABH0 1-420, R286W, Cy3 or Cy5 at the N-terminus in the labelled form (labelled CLEPTGG peptide conjugated to the 5xGly tag by sortagging); unlabelled protein also used); assay: dual-colour TIRF microscopy on supported lipid bilayers; Cy5-FtsA WT or R286W (0.1-0.8 µM) and Alexa488-FtsZ (1.25 µM) on DOPC:DOPG bilayers; reaction buffer with 4 mM ATP, 4 mM GTP; conditions: both partners purified
T3 construct: also called Cy5-FtsA R286W; hyperactive mutant; source: E. coli BL21, purified (as the wild type: Strep-Tactin, SUMO tag cleaved with Ulp1, SEC); not shown: TwinStrep-SUMO, N-terminal, cleaved; 5xGlycine tag, N-terminal, kept
T3 sequence (looked up): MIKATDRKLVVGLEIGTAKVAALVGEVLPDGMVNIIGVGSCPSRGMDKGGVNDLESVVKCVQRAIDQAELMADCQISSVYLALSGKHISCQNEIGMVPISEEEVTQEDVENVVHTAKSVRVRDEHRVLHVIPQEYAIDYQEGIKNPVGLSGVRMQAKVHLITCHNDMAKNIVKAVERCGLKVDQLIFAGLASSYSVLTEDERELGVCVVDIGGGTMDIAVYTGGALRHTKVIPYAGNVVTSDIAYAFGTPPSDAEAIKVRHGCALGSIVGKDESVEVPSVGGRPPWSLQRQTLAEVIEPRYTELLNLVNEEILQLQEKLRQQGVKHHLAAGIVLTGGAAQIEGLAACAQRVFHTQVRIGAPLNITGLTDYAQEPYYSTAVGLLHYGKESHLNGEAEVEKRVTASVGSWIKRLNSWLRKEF

FtsA WT = target: T4, FtsA WT (E. coli, UniProt P0ABH0 1-420, Cy3 or Cy5 at the N-terminus in the labelled form (CLEPTGG peptide labelled with sulfo-Cyanine 3- or 5-maleimide, conjugated to the 5xGly tag by sortagging; degree of labelling 65-70%); unlabelled …); assay: as above; conditions: both partners purified
T4 construct: FtsA, E. coli, cloned into vector pMAR19; called full-length in the results; also called wild-type FtsA; Cy5-FtsA WT; source: E. coli BL21, purified (Strep-Tactin, SUMO tag cleaved with Ulp1, SEC); not shown: TwinStrep-SUMO, N-terminal, cleaved; 5xGlycine tag, N-terminal, kept
T4 sequence (looked up): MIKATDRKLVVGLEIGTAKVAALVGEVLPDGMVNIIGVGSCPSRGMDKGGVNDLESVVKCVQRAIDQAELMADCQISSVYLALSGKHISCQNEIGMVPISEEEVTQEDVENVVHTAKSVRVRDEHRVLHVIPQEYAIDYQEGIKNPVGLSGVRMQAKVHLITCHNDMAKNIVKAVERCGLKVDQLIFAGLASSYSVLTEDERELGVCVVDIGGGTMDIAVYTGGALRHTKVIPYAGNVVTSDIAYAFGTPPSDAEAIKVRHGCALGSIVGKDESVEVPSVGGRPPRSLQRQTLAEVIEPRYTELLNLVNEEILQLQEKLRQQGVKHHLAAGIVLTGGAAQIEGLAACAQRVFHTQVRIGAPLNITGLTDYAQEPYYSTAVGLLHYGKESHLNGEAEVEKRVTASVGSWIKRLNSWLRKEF

FtsZ = conditions: with FtsNcyto-His and His-tagged FtsA
Description: coefficients were close to zero and we could not observe complete recovery of the

FtsA = conditions: Fig. S2f, intensity after FtsNcyto addition
Experimental: Subsequently, the chamber was washed 6x with reaction buffer, to remove bulk peptide. To visualize colocalization with either FtsZ or FtsA, either a mix of FtsA and Alexa488-FtsZ or Cy3-FtsA and FtsZ was added. […] The time-lapse videos were recorded for 10 min after the addition, with one frame per 2 s.
Time-lapse videos were first intensity-corrected and contrast-enhanced to avoid bleaching effects and simplify subsequent analysis. To remove contributions of X–Y drift, the videos were processed with the Linear Stack Alignment with SIFT plugin. Proper alignment was checked with the 3TP align plugin (J. A. Parker; Beth Israel Deaconess Medical Center, Boston). Subsequently, regions of interest (ROIs) in the center of the stacks were chosen for colocalization analysis. The Pearson’s correlation coefficient (PCC) was quantified with the Image CorrelationJ 1o plugin. To extract information about the relative ratio of FtsZ/FtsA molecules (slope of linear regression), we also used the Image CorrelationJ 1o plugin. As an output, the plugin provides a scatterplot of FtsZ vs FtsA intensities, to which we fitted a linear slope y=k⋅x+d , where k is the slope and d the offset. The slope was used as an estimate for the ratio of FtsA molecules below FtsZ filaments.

B1: FtsZ (natural protein, E. coli, UniProt P0A9A6 1-383, looked up)
chain: MFEPMELTNDAVIKVIGVGGGGGNAVEHMVRERIEGVEFFAVNTDAQALRKTAVGQTIQIGSGITKGLGAGANPEVGRNAADEDRDALRAALEGADMVFIAAGMGGGTGTGAAPVVAEVAKDLGILTVAVVTKPFNFEGKKRMAFAEQGITELSKHVDSLITIPNDKLLKVLGRGISLLDAFGAANDVLKGAVQGIAELITRPGLMNVDFADVRTVMSEMGYAMMGSGVASGEDRAEEAAEMAISSPLLEDIDLSGARGVLVNITAGFDLRLDEFETVGNTIRAFASDNATVVIGTSLDPDMNDELRVTVVATGIGMDKRPEITLVTNKQVQQPVMDRYQQHGMAPLTQEQKPVAKVVNDNAPQTAKEPDYLDIPAFLRKQAD
modifications: Alexa Fluor 488 C5 maleimide on the cysteine of the added N-terminal residues AEGCGEL in the labelled form; unlabelled FtsZ also used
notes: FtsZ, E. coli, cloned into a pTB146-derived vector; Present as GTP-dependent treadmilling filaments in the assays; also called Alexa488-FtsZ; FtsZ filaments; source: E. coli BL21, purified (Ni-NTA, His6-SUMO cleaved with Ulp1, polymerisation with CaCl2 and GTP); not shown: His6-SUMO, N-terminal, cleaved; seven residues AEGCGEL for maleimide coupling, N-terminal, kept
binding result (FtsA WT (1-405)-6xHis): binds | binding result (FtsA R286W (1-405)-6xHis): binds | binding result (FtsA R286W): binds | binding result (FtsA WT): binds

B2: FtsZ: E. coli tubulin-like FtsZ forming treadmilling filaments; labelled with Alexa Fluor 488 (protein)
chain: MFEPMELTNDAVIKVIGVGGGGGNAVEHMVRERIEGVEFFAVNTDAQALRKTAVGQTIQIGSGITKGLGAGANPEVGRNAADEDRDALRAALEGADMVFIAAGMGGGTGTGAAPVVAEVAKDLGILTVAVVTKPFNFEGKKRMAFAEQGITELSKHVDSLITIPNDKLLKVLGRGISLLDAFGAANDVLKGAVQGIAELITRPGLMNVDFADVRTVMSEMGYAMMGSGVASGEDRAEEAAEMAISSPLLEDIDLSGARGVLVNITAGFDLRLDEFETVGNTIRAFASDNATVVIGTSLDPDMNDELRVTVVATGIGMDKRPEITLVTNKQVQQPVMDRYQQHGMAPLTQEQKPVAKVVNDNAPQTAKEPDYLDIPAFLRKQAD
modifications: Alexa Fluor 488 C5 maleimide on the cysteine of the added N-terminal residues AEGCGEL in the labelled form; unlabelled FtsZ also used; left off: His6-SUMO, N-terminal, cleaved | seven residues AEGCGEL
mean recovery time of FtsZ (FtsZ): around 9.5 s | Mean Intensity Fold Change (FtsA; 0.10 µM): 1.36 | Mean Intensity Fold Change (FtsA; 0.20 µM): 1.60 | Mean Intensity Fold Change (FtsA; 0.40 µM): 1.56

From paper PMC9098913, “In vitro reconstitution of Escherichia coli divisome activation” (Nature Communications, 2022)
